Measured values as given in publication PMC5897841 (2017).

B4: CK2α kinase (enzyme)
chain: SGPVPSRARVYTDVNTHRPREYWDYESHVVEWGNQDDYQLVRKLGRGKYSEVFEAINITNNEKVVVKILKPVKKKKIKREIKILENLRGGPNIITLADIVKDPVSRTPALVFEHVNNTDFKQLYQTLTDYDIRFYMYEILKALDYCHSMGIMHRDVKPHNVMIDHEHRKLRLIDWGLAEFYHPGQEYNVRVASRYFKGPELLVDYQMYDYSLDMWSLGCMLASMIFRKEPFFHGHDNYDQLVRIAKVLGTEDLYDYIDKYNIELDPRFNDILGRHSRKRWERFVHSENQHLVSPEALDFLDKLLRYDHQSRLTAREAMEHPYFYTVVK

How the values were obtained:
Test in all cases: ITC
[1] = biological target: T1, Aurora A_(D274N) kinase domain (human, UniProt O14965 122-403, D274N)
T1 sequence: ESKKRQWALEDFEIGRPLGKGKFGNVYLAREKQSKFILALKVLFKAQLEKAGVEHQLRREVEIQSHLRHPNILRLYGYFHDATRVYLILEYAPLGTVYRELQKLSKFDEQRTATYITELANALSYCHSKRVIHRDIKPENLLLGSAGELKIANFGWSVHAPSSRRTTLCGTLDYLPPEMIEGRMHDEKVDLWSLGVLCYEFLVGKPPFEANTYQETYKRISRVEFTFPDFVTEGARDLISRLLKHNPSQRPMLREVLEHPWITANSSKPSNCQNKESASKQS

CK2α kinase = biological target: B4
[2] = biological target: T2, cRAD-TPX2_((7–43)) display protein (Pyrococcus furiosus | human, UniProt O74036 108-287; O74036 302-349, K144A)
[3] = biological target: T2, cRAD-TPX2_((7–43)) display protein; remark: listed apart in the source
[4] = biological target: cRAD-CK2β_((186–200)) display protein (Pyrococcus furiosus | human, UniProt O74036 108-287; P67870 186-200; O74036 302-349, K144A)

B1: linear TPX2_((7–43)) peptide (peptide)
peptide: LSYSYDAPSDFINFSSLDDEGDTQNIDSWFEEKANLENLKGGGCQM
For B1, the Ka [1] was 8.71e+06 M⁻¹.

B2: synthetic linear CK2β_((186–200)) peptide (peptide)
chain: RLYGFKIHPMAYQLQ
Binder B2 has a Ka (CK2α kinase) of 7.27e+06 M⁻¹.

B3: Aurora A wild-type kinase domain (untagged) (domain or fragment)
chain: FEIGRPLGKGKFGNVYLAREKQSKFILALKVLFKAQLEKAGVEHQLRREVEIQSHLRHPNILRLYGYFHDATRVYLILEYAPLGTVYRELQKLSKFDEQRTATYITELANALSYCHSKRVIHRDIKPENLLLGSAGELKIADFGWSVHAPSSRRTTLCGTLDYLPPEMIEGRMHDEKVDLWSLGVLCYEFLVGKPPFEANTYQETYKRISRVEFTFPDFVTEGARDLISRLLKHNPSQRPMLREVLEHPWI
Work on B3 yielded a Kd [2] of 15.9 nM and a Ka [3] of 6.27e+07 M⁻¹.

Binder B4 has a Ka [4] of 7.13e+06 M⁻¹.
